Columns and labels:
[1] = tested on: HEK cells stably expressing human β-klotho; assay: HEK β-Klotho pERK 1/2 assay; type: cell-based; conditions: for Efficacy (%): % of His6-tagged FGF21 maximal activity; for activity in HEK β-klotho stable cells (specificity experiment): same dilutions as in parental HEK cells
Protocol: FGF21 induces ERK phosphorylation in the presence of β-klotho. Accordingly, the present HEK-β-klotho assay system was constructed to examine the functional activity of the FGF21-SABA fusions in vitro. Specifically, in vitro activity, potency (EC50) and efficacy (as a percentage of maximal activity observed from an FGF21 molecule that is not fused to a SABA), were determined for the SABA1-FGF21v1 (SEQ ID NO: 132) fusion protein, as measured in the HEK β-Klotho expressing stable cell pERK 1/2 assay using the non-fused His-tagged FGF21 (“FGFv1”; SEQ ID NO: 125) as a comparator.
A HEK cell line stably expressing human β-klotho was constructed. The human β-klotho construct encoded the full length protein under the control of a CMV promoter with a C-terminal FLAG tag. HEK 293 cells were transfected with the linearized cDNA using Lipofectamine 2000 (Invitrogen catalog #11668027) following the manufactures protocol using standard techniques. Positive clones were isolated after 14 days of selection in 600 ug/ml (Invitrogen catalog #10131) of geneticin in Dulbecco's Modified Eagle Medium with high glucose containing L-Glutamine, Hepes (Invitrogen catalog #12430054) and 10% FBS (HyClone catalog # SH30071). Positive stable clones were further characterized by Western Blot analysis and p-ERK activation by AlphaScreen (Perkin Elmer catalog # TGRES50K) analysis.
HEK cells stably expressing human β-klotho were plated at 20,000 cells/well in 96 well tissue culture plates in DMEM high glucose media (Gibco) containing 10% (v/v) FBS (Hyclone) and 600 μg/ml G418 (Gibco). The following day, the media was removed and replaced with DMEM high glucose media without serum and the cells were incubated overnight. The morning of the third day the serum free media was removed and the cells were incubated for a total of seven minutes with dilutions of the proteins made in PBS containing 3% (w/v) fatty acid free human serum albumin. Dilutions were tested in triplicate, one well on each of three plates. At the end of the seven minute incubation, the protein dilutions were removed and 100 μl of 1x AlphaScreen lysis buffer (Perkin-Elmer) was added per well and allowed to incubate with shaking for approximately 10-15 minutes. The plates containing the cellular lysates were frozen at −80° C. for at least 30 minutes or until ready to assay. Four μl from each well of thawed cell lysate was analyzed for pERK 1/2 using the Surefire AlphaScreen pERK 1/2 kit (Perkin Elmer) using 384 well white Proxiplates (Perkin Elmer) following the manufacturer's directions. Plates were incubated at room temperature for two hours in the dark and then read on an Envision 2103 Multiplate reader (Perkin Elmer). Data were analyzed using Graph Pad Prism software using a non-linear regression analysis.

[2] = Pharmacokinetics of His-tagged FGF21 and SABA1-FGF21v1 in mice; type: in vivo, CD-1 mice; ob/ob mice; conditions: for steady-state volume of distribution (Vss) / terminal half-life (T1/2) / total body plasma clearance (CLTp): CD-1 mice, intravenous, His-tagged FGF21 1 mg/kg, SABA1-FGF21v1 1.6 mg/kg
Protocol: (§1) Various in vivo studies were conducted in mice and monkeys to characterize the pharmacokinetics of His-tagged FGF21 and SABA1-FGF21v1. An ELISA-based ligand binding assay was used to measure the His-tagged FGF21 and SABA1-FGF21v1 in all mouse and monkey plasma samples.
(§2) Following subcutaneous administration, His-tagged FGF21 was well absorbed.
(§3) Following subcutaneous administration, SABA1-FGF21v1 was well absorbed.
SABA1-FGF21v1 was also administered to ob/ob mice at 1 mg/kg subcutaneously after pre-mix with human serum albumin (6 mg/kg).

diabetic ob/ob mice = assay: Plasma glucose lowering in diabetic ob/ob mice, 7 days daily s.c.; type: in vivo, mouse; conditions: day 7; for lowering of plasma glucose compared to the PBS vehicle control: SABA1-FGF21v1 1.0 mg/kg, His-tagged FGF21 0.3 mg/kg s.c. daily; for magnitude of glucose lowering: […] hours post dose
Protocol: (§4) Thus, monitoring plasma glucose levels in diabetic ob/ob mice represents one way that the functional activity of the FGF21-SABA fusion proteins can be assessed. Beginning at 8 weeks of age, diabetic ob/ob mice received daily subcutaneous doses for 7 days (n=8 per group). All protocols were approved by the BMS ACUC committee. Fed glucose levels were examined both 24 hr and 3 hr post-dose on day 7 beginning at 8:00 AM. His-tagged FGF21 and SABA1-FGF21v1 were formulated in PBS and dosed at 0.3 mg/kg, and 1.0 mg/kg. respectively.
(§5) To evaluate the efficacy of SABA1-FGF21v1 bound to human albumin, the fusion protein (1 mg/kg) was incubated with a molar excess of human serum albumin (6 mg/kg) and the mixture was injected in an additional group (q.d. s.c. for 7 days). Human serum albumin (6 mg/kg) was used as an additional control group.

[3] = Plasma exposure in the ob/ob mouse efficacy study; type: in vivo, ob/ob mice; conditions: His6-tagged FGF21 0.3 mg/kg, SABA1-FGF21v1 1 mg/kg, without HSA; for Plasma Concentration: 3 hours post dose; for Plasma Concentration (ng/ml): […] hours post dose
Protocol: as §4, §5
The exposure of SABA1-FGF21v1 is greater in the presence of human serum albumin than in its absence.
as §1

[4] = tested on: parental HEK cells, which do not express β-klotho; assay: pERK 1/2 specificity assay in parental HEK cells; type: cell-based, human
Excerpt: FGF1 was used as a positive control in those experiments.

[5] = Pharmacokinetics of His-tagged FGF21 and SABA-FGF21 fusions in monkeys; type: in vivo, cynomolgus monkeys; conditions: for CL (total body plasma clearance, CLTp) / T½ (terminal half-life) / Vdss (steady-state volume of distribution, Vss) / absolute subcutaneous bioavailability / apparent subcutaneous terminal half-life (T1/2): monkeys; for CL (total body plasma clearance, CLTp) / T½ (terminal half-life) / Vdss (steady-state volume of distribution, Vss): intravenous, His-tagged FGF21 0.5 mg/kg, SABA1-FGF21v1 0.08 mg/kg
Protocol: as §1, §2, §3

[6] = cyno, SC, 0.08 mg/kg, N = 3, mean ± SD

Molecule	Efficacy (%) ([1]; mean ± std. dev., N ≧4)	activity in HEK β-klotho stable cells (specificity experiment) [1]	steady-state volume of distribution (Vss) [2] [L/kg]	terminal half-life (T1/2) [2] [h]	total body plasma clearance (CLTp) [2] [mL/min/kg]	apparent subcutaneous terminal half-life (T1/2) ([2]; mice, subcutaneous) [h]	lowering of plasma glucose compared to the PBS vehicle control (diabetic ob/ob mice; 3 hours post dose)	Plasma Concentration [3] [ng/mL]	Plasma Concentration (ng/ml) [3]	stimulation of pERK 1/2 levels in parental HEK cells [4]	CL (total body plasma clearance, CLTp) [5] [mL/min/kg]	T½ (terminal half-life) [5] [h]	Vdss (steady-state volume of distribution, Vss) [5] [L/kg]	absolute subcutaneous bioavailability [5] [%]	apparent subcutaneous terminal half-life (T1/2) [5] [h]	other results
SABA1-FGF21v1: SABA1-FGF21 fusion, SEQ ID NO: 132; 293 aa; DNA SEQ ID NO: 184 (protein) MGVSDVPRDLEVVAATPTSLLISWHSYYEQNSYYRITYGETGGNSPVQEFTVPYSQTTATISGLKPGVDYTITVYAVYGSKYYYPISINYRTEIEKPSQGSGSGSGSGSGSGSPIPDSSPLLQFGGQVRQRYLYTDDAQQTEAHLEIREDGTVGGAADQSPESLLQLKALKPGVIQILGVKTSRFLCQRPDGALYGSLHFDPEACSFRELLLEDGYNVYQSEAHGLPLHLPGNKSPHRDPAPRGPARFLPLPGLPPALPEPPGILAPQPPDVGSSDPLSMVGPSQGRSPSYAS	62	showed activity	0.12	1.9	2.9	1.9	29%	1370	<LLOQ	neither His-tagged FGF21 nor SABA1-FGF21v1 stimulated pERK 1/2 levels	0.012	97	0.08	68	67	right shift of potency (EC50) relative to the His-tagged FGF21 [1]: approximately 15 fold; Efficacy (%) ([1]; mean ± std. dev., N ≧4, listed as SABAl-FGF21v1): 62 ± 9%; apparent subcutaneous terminal half-life (T1/2) ([2]; ob/ob mice, 1 mg/kg subcutaneously after pre-mix with human serum albumin (6 mg/kg)): 9 h; lowering of plasma glucose compared to the HSA control (diabetic ob/ob mice; 3 hours post dose, 1 mg/kg with human serum albumin 6 mg/kg, q.d. s.c.): 46%; magnitude of glucose lowering (diabetic ob/ob mice; 1.0 mg/kg s.c. daily, without HSA): 7%; magnitude of glucose lowering (diabetic ob/ob mice; 1 mg/kg with HSA 6 mg/kg): 41%; AUCtot ([5]; cyno, IV, 0.08 mg/kg, N = 2): 3.621 µM·h; CLTp ([5]; cyno, IV, 0.08 mg/kg, N = 2): 0.0118 mL/min/kg; T½ ([5]; cyno, IV, 0.08 mg/kg, N = 2): 97 h; Vss ([5]; cyno, IV, 0.08 mg/kg, N = 2): 0.076 L/kg; F (%) ([5]; cyno, SC, 0.08 mg/kg): 68%; AUCtot [5, 6]: 2.454 ± 0.779 µM·h; Cmax [5, 6]: 22.4 ± 10.8 nM; Tmax [5, 6]: 13 ± 9 h
His-tagged FGF21: non-fused His-tagged FGF21 (“FGFv1”; SEQ ID NO: 125) used as a comparator (protein, His6 tag) MHHHHHHPIPDSSPLLQFGGQVRQRYLYTDDAQQTEAHLEIREDGTVGGAADQSPESLLQLKALKPGVIQILGVKTSRFLCQRPDGALYGSLHFDPEACSFRELLLEDGYNVYQSEAHGLPLHLPGNKSPHRDPAPRGPARFLPLPGLPPALPEPPGILAPQPPDVGSSDPLSMVGPSQGRSPSYAS	100	showed activity	0.27	0.5	12	0.6	comparable	99	<LLOQ	neither His-tagged FGF21 nor SABA1-FGF21v1 stimulated pERK 1/2 levels	6.4	1.9	1	65	4.3	EC50 ([1]; pERK 1/2, in PBS with 3% human serum albumin, mean ± std. dev., N ≧4): 7 ± 4 nM; absolute subcutaneous bioavailability ([2]; mice, subcutaneous): ~100%

Reference: US9540424B2, “Serum albumin binding molecules” (BRISTOL-MYERS SQUIBB COMPANY, priority 2010, dated 2017)
